Measured values as given in PMC4591219 (Cell reports, 2015).
One block for each binder: values may come before it.

Legend:
[1] = biological target: T1, Pot1 (wild type, recombinant, GST pull-down) (S. pombe, UniProt O13988 1-555); test: pull-down
T1 sequence: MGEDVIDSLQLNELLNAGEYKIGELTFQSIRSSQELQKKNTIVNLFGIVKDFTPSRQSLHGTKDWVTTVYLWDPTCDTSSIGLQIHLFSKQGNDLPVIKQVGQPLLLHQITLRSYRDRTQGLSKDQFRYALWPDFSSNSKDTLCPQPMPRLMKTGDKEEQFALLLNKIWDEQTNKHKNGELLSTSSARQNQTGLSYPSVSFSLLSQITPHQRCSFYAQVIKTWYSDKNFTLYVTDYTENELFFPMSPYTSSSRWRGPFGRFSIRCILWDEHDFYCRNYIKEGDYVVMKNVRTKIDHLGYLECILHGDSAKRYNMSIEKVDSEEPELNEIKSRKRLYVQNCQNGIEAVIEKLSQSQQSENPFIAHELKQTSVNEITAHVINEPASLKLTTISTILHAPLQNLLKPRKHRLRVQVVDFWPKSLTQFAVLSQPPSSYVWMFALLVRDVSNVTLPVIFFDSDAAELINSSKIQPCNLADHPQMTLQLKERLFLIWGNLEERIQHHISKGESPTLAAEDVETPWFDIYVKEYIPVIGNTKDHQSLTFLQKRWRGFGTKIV

[2] = biological target: T2, Pot1-I453R (Schizosaccharomyces pombe, UniProt O13988 1-555, I453R); test: EMSA
T2 sequence: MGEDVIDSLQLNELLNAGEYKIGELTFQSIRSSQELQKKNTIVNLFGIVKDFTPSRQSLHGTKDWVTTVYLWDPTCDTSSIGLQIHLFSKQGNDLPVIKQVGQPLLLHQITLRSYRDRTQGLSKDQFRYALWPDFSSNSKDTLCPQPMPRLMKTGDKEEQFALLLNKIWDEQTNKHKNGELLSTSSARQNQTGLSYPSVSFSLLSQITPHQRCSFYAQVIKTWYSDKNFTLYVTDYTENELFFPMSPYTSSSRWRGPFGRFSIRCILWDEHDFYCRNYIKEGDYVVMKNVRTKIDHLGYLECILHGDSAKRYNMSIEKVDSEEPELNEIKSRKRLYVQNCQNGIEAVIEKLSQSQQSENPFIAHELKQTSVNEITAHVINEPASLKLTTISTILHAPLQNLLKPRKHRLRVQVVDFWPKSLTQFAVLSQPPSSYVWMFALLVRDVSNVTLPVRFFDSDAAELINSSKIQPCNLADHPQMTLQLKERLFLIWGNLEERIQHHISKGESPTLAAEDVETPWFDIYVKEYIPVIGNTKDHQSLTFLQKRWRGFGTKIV

[3] = biological target: T3, Pot1-F520A (Schizosaccharomyces pombe, UniProt O13988 1-555, F520A); test: EMSA
T3 sequence: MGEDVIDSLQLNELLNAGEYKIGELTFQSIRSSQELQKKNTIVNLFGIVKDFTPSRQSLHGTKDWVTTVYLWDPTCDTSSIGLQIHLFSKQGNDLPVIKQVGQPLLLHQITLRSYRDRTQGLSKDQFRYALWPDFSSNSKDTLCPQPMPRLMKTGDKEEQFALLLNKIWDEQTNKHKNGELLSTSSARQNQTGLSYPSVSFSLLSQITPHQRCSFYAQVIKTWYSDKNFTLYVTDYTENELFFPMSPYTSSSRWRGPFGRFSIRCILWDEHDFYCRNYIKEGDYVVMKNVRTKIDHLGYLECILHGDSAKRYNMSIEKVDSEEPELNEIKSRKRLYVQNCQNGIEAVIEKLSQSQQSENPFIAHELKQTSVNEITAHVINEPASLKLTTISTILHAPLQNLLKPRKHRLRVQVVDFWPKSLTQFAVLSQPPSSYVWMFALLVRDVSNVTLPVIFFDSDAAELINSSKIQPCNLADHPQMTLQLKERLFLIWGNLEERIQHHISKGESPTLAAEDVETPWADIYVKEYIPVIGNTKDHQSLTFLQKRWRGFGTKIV

[4] = biological target: T4, full-length Poz1 (in the purified Poz1-Tpz1 complex) (S. pombe, UniProt O13852 1-249); test: cross-linking
T4 sequence: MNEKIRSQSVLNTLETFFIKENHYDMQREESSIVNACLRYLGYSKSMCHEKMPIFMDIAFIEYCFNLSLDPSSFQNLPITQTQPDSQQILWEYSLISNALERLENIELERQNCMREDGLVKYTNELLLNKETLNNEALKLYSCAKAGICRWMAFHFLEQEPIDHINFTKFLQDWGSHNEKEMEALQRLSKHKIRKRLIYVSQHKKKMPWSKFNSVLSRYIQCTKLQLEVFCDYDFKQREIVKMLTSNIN

[5] = biological target: T5, Poz1-W209A (recombinant) (S. pombe, UniProt O13852 1-249, W209A); test: pull-down
T5 sequence: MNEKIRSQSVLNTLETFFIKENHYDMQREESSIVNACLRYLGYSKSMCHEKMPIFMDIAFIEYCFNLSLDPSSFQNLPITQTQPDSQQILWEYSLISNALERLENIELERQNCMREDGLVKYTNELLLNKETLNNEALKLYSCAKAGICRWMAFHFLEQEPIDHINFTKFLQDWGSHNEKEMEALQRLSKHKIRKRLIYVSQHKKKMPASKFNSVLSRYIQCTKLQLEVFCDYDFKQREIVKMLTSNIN

[6] = biological target: T6, Poz1 (wild type, recombinant, GST pull-down) (S. pombe, UniProt O13852 1-249); test: pull-down
T6 sequence: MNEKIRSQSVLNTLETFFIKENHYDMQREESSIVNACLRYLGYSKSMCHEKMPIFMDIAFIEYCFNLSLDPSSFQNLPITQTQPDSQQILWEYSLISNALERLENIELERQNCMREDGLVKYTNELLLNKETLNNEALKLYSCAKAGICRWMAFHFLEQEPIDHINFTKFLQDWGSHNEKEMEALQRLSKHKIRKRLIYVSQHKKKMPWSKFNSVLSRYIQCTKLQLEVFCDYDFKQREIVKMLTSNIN

[7] = biological target: T7, Poz1-W174R (recombinant) (S. pombe, UniProt O13852 1-249, W174R); test: pull-down
T7 sequence: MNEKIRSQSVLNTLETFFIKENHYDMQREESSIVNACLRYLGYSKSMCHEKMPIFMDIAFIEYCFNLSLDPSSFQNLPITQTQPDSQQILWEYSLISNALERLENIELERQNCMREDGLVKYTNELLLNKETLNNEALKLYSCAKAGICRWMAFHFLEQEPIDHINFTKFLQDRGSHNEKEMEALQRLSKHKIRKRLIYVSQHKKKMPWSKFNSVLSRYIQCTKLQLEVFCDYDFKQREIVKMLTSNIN

[8] = biological target: T8, Ccq1 (130–439) (S. pombe, UniProt Q10432 130-439); test: cross-linking
T8 sequence: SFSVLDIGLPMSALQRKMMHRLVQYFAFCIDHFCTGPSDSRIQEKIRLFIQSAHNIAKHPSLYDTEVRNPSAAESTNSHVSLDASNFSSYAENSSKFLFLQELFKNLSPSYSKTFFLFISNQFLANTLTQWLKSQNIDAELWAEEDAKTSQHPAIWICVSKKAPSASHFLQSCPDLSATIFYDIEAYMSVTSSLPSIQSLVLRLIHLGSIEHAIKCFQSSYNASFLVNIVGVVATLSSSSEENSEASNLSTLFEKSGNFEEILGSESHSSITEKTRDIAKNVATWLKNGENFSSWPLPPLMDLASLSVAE

[9] = biological target: T9, full-length Pot1 (in the purified Pot1–Tpz1-NTD complex) (S. pombe, UniProt O13988 1-555); test: cross-linking
T9 sequence: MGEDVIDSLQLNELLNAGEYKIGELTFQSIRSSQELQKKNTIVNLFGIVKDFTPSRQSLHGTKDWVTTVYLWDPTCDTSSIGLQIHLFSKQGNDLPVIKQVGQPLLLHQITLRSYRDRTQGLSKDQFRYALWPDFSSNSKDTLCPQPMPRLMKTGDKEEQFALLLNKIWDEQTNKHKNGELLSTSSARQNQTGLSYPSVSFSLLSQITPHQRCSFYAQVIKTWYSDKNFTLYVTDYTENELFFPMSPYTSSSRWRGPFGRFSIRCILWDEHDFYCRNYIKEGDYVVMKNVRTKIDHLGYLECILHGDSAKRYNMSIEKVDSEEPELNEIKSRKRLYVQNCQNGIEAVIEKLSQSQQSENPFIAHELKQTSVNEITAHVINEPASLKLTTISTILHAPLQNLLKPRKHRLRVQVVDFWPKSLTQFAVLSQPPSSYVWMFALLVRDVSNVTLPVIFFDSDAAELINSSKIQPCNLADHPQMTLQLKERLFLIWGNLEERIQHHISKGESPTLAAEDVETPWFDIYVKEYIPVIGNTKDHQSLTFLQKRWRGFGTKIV

binding result [1]: binds
B1: GST-Tpz1-NTD (2–234) (domain or fragment)
chain: SNCLKHPWLENGLLNLIKNADVLPIRVFKCQPLQIFEYIRYEHPIRCKLSDTEFYIEAEFSSQSISDLNNFTEKRITSLRGGIVTLGNFLIHLIPSQSGIIPWIQVESFNFQGCEGAVFGNPKAITTSALFNALLQSPYLAALANEFNRSIKEGSSYQEASLSQQEKPNDNTSNSRDIKNNIQFHWKNMTSLSIEECIIPKGQQLILEKESEENTTHGIYLEERKMAQGLHNS

Binder: GTTACGGTTACAGGTTACG (ssDNA) [telomeric ssDNA 19-mer]
binding result [2]: binds | binding result [3]: binds

binding result [4]: binds
B2: Tpz1 (406–508) (in the purified Poz1-Tpz1 complex) (domain or fragment)
chain: SSVISCTPPAINFTSDICNEQIELEYKRKPIPDYDFMKGLETTLQELYVEHQSKKRRLELFQLTNNHQKNSEACEMCRLGLPHGSFFELLRDWKKIEEFRNKS

binding result [5]: binds | binding result [6]: binds | binding result [7]: binds
B3: GST-Tpz1-CTD (406–508) (domain or fragment)
chain: SSVISCTPPAINFTSDICNEQIELEYKRKPIPDYDFMKGLETTLQELYVEHQSKKRRLELFQLTNNHQKNSEACEMCRLGLPHGSFFELLRDWKKIEEFRNKS

binding result [8]: binds
Binder: AINFTSDICNEQIELEYKRKPIPDYDFMKGLETTLQELYVEHQS (domain or fragment) [Tpz1 (415–458)]

binding result [9]: binds
B4: Tpz1-NTD (1–234) (in the purified Pot1–Tpz1-NTD complex) (domain or fragment)
chain: MSNCLKHPWLENGLLNLIKNADVLPIRVFKCQPLQIFEYIRYEHPIRCKLSDTEFYIEAEFSSQSISDLNNFTEKRITSLRGGIVTLGNFLIHLIPSQSGIIPWIQVESFNFQGCEGAVFGNPKAITTSALFNALLQSPYLAALANEFNRSIKEGSSYQEASLSQQEKPNDNTSNSRDIKNNIQFHWKNMTSLSIEECIIPKGQQLILEKESEENTTHGIYLEERKMAQGLHNS
